Changes are numbered by the printed parent chain.
T1: trimeric murine IL-2 receptor (IL-2Rα, IL-2Rβ, and IL-2Rγ) on CTLL-2 cells (murine, UniProt P01590 22-268; P16297 27-539; P34902 23-369)
T1 sequence (looked up) 1: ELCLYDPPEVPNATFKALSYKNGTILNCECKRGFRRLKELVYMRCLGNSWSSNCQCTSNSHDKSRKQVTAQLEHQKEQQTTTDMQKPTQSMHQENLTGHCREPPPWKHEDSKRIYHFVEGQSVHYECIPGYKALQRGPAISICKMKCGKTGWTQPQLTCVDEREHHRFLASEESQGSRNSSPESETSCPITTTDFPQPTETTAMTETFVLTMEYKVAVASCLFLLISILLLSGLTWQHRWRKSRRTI
T1 sequence (looked up) 2: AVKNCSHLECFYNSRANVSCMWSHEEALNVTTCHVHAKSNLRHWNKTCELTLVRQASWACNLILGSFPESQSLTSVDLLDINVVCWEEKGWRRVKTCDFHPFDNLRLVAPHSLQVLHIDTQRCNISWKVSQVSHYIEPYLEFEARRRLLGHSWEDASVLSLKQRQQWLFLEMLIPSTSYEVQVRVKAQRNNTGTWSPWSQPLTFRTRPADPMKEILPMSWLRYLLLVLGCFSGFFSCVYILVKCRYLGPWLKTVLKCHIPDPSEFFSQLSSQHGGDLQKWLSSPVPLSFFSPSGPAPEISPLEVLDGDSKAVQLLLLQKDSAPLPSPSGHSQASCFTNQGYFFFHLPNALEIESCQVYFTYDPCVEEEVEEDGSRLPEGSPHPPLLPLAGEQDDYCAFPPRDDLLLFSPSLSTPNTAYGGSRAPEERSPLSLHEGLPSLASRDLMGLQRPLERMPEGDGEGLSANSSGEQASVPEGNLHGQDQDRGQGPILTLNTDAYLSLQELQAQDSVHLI
T1 sequence (looked up) 3: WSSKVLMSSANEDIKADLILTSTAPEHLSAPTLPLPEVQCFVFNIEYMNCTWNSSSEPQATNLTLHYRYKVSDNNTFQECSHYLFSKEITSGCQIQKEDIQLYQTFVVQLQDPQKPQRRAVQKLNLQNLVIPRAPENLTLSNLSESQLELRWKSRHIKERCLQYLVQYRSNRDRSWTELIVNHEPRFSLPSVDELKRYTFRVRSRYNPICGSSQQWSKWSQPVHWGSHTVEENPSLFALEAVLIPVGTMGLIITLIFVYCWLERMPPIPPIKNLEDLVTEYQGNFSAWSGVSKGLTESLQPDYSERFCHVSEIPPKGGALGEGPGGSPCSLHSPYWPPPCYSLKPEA

T2: human IL-2Rα on Treg cells (CD3+, CD4+, CD25hi, FoxP3+) of human PBMC (human, UniProt P01589 22-272)
T2 sequence (looked up): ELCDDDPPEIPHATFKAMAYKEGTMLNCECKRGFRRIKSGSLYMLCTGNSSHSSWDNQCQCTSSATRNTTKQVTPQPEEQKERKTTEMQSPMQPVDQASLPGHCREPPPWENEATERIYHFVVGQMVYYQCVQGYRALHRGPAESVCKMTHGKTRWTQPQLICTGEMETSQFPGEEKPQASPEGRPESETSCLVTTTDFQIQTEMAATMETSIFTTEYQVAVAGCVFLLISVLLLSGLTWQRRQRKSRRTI

T3: IL-2Rβ (recombinant IL-2 receptor β, R&D Systems Cat #:224-2B-025/CF), biotinylated (UniProt P14784 27-239, limits assumed, biotinylated using sulfo-NHS-LC-LC-Biotin)
T3 construct: Bought reagent; also called IL-2RB; CD122
T3 sequence (looked up): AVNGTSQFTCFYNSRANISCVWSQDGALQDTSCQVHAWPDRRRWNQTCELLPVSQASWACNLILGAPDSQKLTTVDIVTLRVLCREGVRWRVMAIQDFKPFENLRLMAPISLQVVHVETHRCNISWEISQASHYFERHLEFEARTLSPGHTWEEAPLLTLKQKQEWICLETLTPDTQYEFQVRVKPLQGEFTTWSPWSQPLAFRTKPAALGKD

T4: IL-2Rα (recombinant IL-2 receptor α, R&D Systems Cat #: 223-2A/CF), biotinylated (human, UniProt P01589 22-213, limits assumed, biotinylated using sulfo-NHS-LC-LC-Biotin)
T4 construct: Bought reagent; also used here as the IL-2Rα partner of the in-silico analysis of PDB 2B5I (another construct); also called IL-2RA; CD25
T4 sequence (looked up): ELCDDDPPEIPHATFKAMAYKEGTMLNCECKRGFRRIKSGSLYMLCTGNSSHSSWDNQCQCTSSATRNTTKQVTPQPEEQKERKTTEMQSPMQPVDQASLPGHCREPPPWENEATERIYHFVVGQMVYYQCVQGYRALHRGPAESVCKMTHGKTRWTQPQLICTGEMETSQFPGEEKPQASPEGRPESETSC

B1: mouse surrogate Fc-IL-2v heterodimer 169.250 (IL2v_F56A_Y59G_E76A_C140A) (Fc fusion)
chain 1: GPTIKPCPPCKCPAPNAAGGPSVFIFPPKIKDVLMISLSPIVTCVVVDVSEDDPDVQISWFVNNVEVHTAQTQTHREDYNSTLRVVSALPIQHQDWMSGKEFKCKVNNKDLGAPIERTISKPKGSVRAPQVYVLPPPEEEMTKKQVTLWCMVTDFMPEDIYVEWTNNGKTELNYKNTEPVLDSDGSYFMYSKLRVEKKNWVERNSYSCSVVHEGLHNHHTTKSFSRTPGGGGGSGGGGSGGGGSGGGGSQQQHLEQLLMDLQELLSRMENYRNLKLPRMLTAKFGLPKQATELKDLQCLEDALGPLRHVLDLTQSKSFQLEDAENFISNIRVTVVKLKGSDNTFECQFDDESATVVDFLRRWIAFAQSIISTSPQ
chain 2: GPTIKPCPPCKCPAPNAAGGPSVFIFPPKIKDVLMISLSPIVTCVVVDVSEDDPDVQISWFVNNVEVHTAQTQTHREDYNSTLRVVSALPIQHQDWMSGKEFKCKVNNKDLGAPIERTISKPKGSVRAPQVYVLPPPEEEMTKKQVTLSCAVTDFMPEDIYVEWTNNGKTELNYKNTEPVLDSDGSYFMVSKLRVEKKNWVERNSYSCSVVHEGLHNHHTTKSFSRTPGK
B2: mouse surrogate Fc-IL-2v heterodimer 170.250 (IL2v_R52G_E76A_C140A) (Fc fusion)
chain 1: B1 chain 1 with R278G, A282F, G285Y
chain 2: B1 chain 2
B3: Fc-IL-2v heterodimer 81.46 (hIL-2v_Δ1-5_R38G_C125S) (Fc fusion)
chain 1: ESKYGPPCPPCPAPEAAGGPSVFLFPPKPKDTLMISRTPEVTCVVVDVSQEDPEVQFNWYVDGVEVHNAKTKPREEQFNSTYRVVSVLTVLHQDWLNGKEYKCKVSNKGLPSSIEKTISKAKGQPREPQVYTLPPSQEEMTKNQVSLWCLVKGFYPSDIAVEWESNGQPENNYKTTPPVLDSDGSFFLYSRLTVDKSRWQEGNVFSCSVMHEALHNHYTQKSLSLSLGGGGGSGGGGSGGGGSGGGGSSTKKTQLQLEHLLLDLQMILNGINNYKNPKLTGMLTFKFYMPKKATELKHLQCLEEELKPLEEVLNLAQSKNFHLRPRDLISNINVIVLELKGSETTFMCEYADETATIVEFLNRWITFSQSIISTLT
chain 2: ESKYGPPCPPCPAPEAAGGPSVFLFPPKPKDTLMISRTPEVTCVVVDVSQEDPEVQFNWYVDGVEVHNAKTKPREEQFNSTYRVVSVLTVLHQDWLNGKEYKCKVSNKGLPSSIEKTISKAKGQPREPQVYTLPPSQEEMTKNQVSLSCAVKGFYPSDIAVEWESNGQPENNYKTTPPVLDSDGSFFLVSRLTVDKSRWQEGNVFSCSVMHEALHNRFTQKSLSLSLGK
notes: hIgG4 knob-in-hole Fc heterodimer, one IL-2v on the knob chain
B4: Fc-IL-2v heterodimer 90.46 (hIL-2v_Δ1-5_E62A_C125S) (Fc fusion)
chain 1: B3 chain 1 with G281R, E305A
chain 2: B3 chain 2
notes: as for B3
B5: Fc-IL-2v heterodimer 83.46 (hIL-2v_Δ1-5_T41G_C125S) (Fc fusion)
chain 1: B3 chain 1 with G281R, T284G
chain 2: B3 chain 2
notes: as for B3
B6: Fc-IL-2v heterodimer 86.46 (hIL-2v_Δ1-5_F42A_C125S) (Fc fusion)
chain 1: B3 chain 1 with G281R, F285A
chain 2: B3 chain 2
notes: as for B3
B7: Fc-IL-2v heterodimer 87.46 (hIL-2v_Δ1-5_Y45G_C125S) (Fc fusion)
chain 1: B3 chain 1 with G281R, Y288G
chain 2: B3 chain 2
notes: as for B3
B8: Fc-IL-2v heterodimer 89.46 (hIL-2v_Δ1-5_E61A_C125S) (Fc fusion)
chain 1: B3 chain 1 with G281R, E304A
chain 2: B3 chain 2
notes: as for B3

target: T1, trimeric murine IL-2 receptor (IL-2Rα, …); test: cell-based or functional assay

pSTAT5 EC50, STAT5 activation of CTLL-2 cells	Binder
51.4 nM	B1
9.6 nM	B2

target: T1, trimeric murine IL-2 receptor (IL-2Rα, …); test: cell-based or functional assay; remark: another data set of the same source

STAT5 activation of CTLL-2 cells, EC50	Binder
0.02 nM	B3
2 nM	B4
0.04 nM	B5
1 nM	B6
0.2 nM	B7
0.02 nM	B8

target: T2, human IL-2Rα on Treg cells (CD3+, CD4+, …); test: cell-based or functional assay

Treg EC50, STAT5 activation (PBMC STAT5 assay)	Binder
0.07 nM	B3
0.08 nM	B4
< 0.001 nM	B5
0.3 nM	B6
0.03 nM	B7
0.04 nM	B8

target: T5, IL-2Rβγ heterodimer, custom biotinylated Fc fusion protein (human IL-2Rβ 27-240-Fc-FLAG / human IL-2Rγ … (human, site-specific biotinylation at the AviTag)); test: SPR (Biacore), C1 or CM5 chip, biotinylated receptor on neutravidin
T5 construct: Extracellular regions fused to IgG1 knob-in-hole Fc subunits with tags; also called IL-2 receptor βγ heterodimer; Fc-IL-2Rβγ
T5 sequence (chain, as listed by the source limits assumed): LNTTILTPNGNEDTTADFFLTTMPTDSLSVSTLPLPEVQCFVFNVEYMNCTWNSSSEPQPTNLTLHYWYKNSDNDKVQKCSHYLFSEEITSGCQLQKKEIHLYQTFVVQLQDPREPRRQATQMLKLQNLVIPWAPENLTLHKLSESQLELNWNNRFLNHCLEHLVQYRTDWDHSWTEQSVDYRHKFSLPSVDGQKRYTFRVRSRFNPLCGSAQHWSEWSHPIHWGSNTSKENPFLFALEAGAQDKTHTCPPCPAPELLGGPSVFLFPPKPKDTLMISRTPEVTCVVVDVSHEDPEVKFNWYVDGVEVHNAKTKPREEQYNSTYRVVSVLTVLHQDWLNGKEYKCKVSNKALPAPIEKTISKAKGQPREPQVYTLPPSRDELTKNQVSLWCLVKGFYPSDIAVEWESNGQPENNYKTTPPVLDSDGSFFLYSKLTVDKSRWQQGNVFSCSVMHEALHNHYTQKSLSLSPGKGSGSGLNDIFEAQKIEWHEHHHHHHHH
Source text: (§1) Data for binding of Fc-IL-2 variant fusion proteins to IL-2Rα, IL-2Rβ and IL-2Rβγ heterodimer were collected on a Biacore platform using either C1 or CM5 chips. Neutravidin was immobilized using standard amine coupling methods and used to capture biotinylated receptors. Commercially sourced IL-2Rα (R&D Systems Cat #: 223-2A/CF) and IL-2Rβ receptors (R&D Systems Cat #:224-2B-025/CF) were biotinylated using sulfo-NHS-LC-LC-Biotin, desalted, and then captured on the neutravidin surfaces. […] Distinct purification tags were appended to the C-terminus of each chain. A FLAG epitope tag ([…]; SEQ ID NO: 257) was added at the C-terminus of IL-2Rβ subunit, followed by C-terminal Hiss tag ([…]; SEQ ID NO: 258). An AviTag™ ([…]; SEQ ID NO: 259) motif on the IL-2Rγ subunit allowed for site-specific biotinylation of the heterodimer.
(§2) Fc IL 2 fusion protein variants, Fc protein, and Proleukin were injected at various concentrations over these surfaces. Kinetic data obtained from these injections was used to extract kₒₙ and koff to calculate KD (KD=koff/kₒₙ). Experiments were run at 25° C. in HBS-EP+ running buffer (10 mM HEPES, 150 mM NaCl, 3 mM EDTA, 0.05% Tween20, pH 7.4 with 0.1 mg/ml BSA). Data shown in Table 5 for Fc IL-2 fusion protein variants binding to the indicated IL-2R surfaces were derived from the global fitting of data obtained from 2-5 independent surfaces.

Kd	Binder
0.071 nM	B3
0.152 nM	B4
0.15 nM	B5
0.094 nM	B6
0.016 nM	B7
0.065 nM	B8

target: T3, IL-2Rβ (recombinant IL-2 receptor β, …); test: as above
Source text: as §1, §2

Kd	Binder
7000 nM	B3
8100 nM	B4
7300 nM	B5
7100 nM	B6
7000 nM	B7
8800 nM	B8

target: T4, IL-2Rα (recombinant IL-2 receptor α, …); test: as above
Source text: as §1, §2

Kd	fold larger effect on reducing IL-2Rα affinity against R38A (heterodimer 82.46)	Binder
685 nM	6 fold	B3
2400 nM	–	B4
29 nM	–	B5
2000 nM	–	B6
269 nM	–	B7
419 nM	–	B8
